Test results: the DeepSol protein solubility set

Test: soluble on expression in E. coli; label from the status in PepcDB or PDB records

Q: For “MGGFGVGKTTMVGSVSEIRPLTTEETMTQAGIGVDDNYGSASKTATTVAMDFGRISITDELVLYLFGTPGQERFWFLWNGLFEGALGAVVLVDTRRLEVSFDVMGRLEERGVPFVVAVNTFPDAPRYPVAELRTALDLPEEIPILDCDVRRRASSRDVLMTLMRLLHSLAMKGALTLEHHHHHH”, which “soluble on expression in E. coli” value is on record?
A: Its value is “not soluble”.

Q: With “MGGIGRIGILGSGSWATALAKIILTSQPSINWFMRREEQAQGIKRTGRNPNYLRDAVFDPRKISFFTDSDLNSFFRASDVVVLVTPSPFIKSYLKRVRSSSMRDKLIINAIKGIVPDENVLVSEYLHDFCDVPNELIGVVSGPCHAEEVARERRSYLTVGCFDINKAKAMANVLRNDYVSCTTSQDVVGIEYASVLKNVYAIAAGICNGLQYGDNFQSVLMSNAIAEMNSFVNTVHLLEREITDSVYLGDLLVTAYSNYSRNRTFGNMIGKGYSVKSAQMEMEMIAEGYYGAKCVREVNKRYQVNMPIMNTVYEVLYEKRDAAEAITALTAHFK” as the sequence, how does the “soluble on expression in E. coli” value read?
A: Its value is “not soluble”.

Q: For “MGGLYVSNFYGIFYSSNSESSTTLVDFCKYNAEIVEQTIFLEFVEFSNESIIFLKNLYSKMVNNSNFNIKKKFFHRKNSVTVYSNFLNFSKNLVKKFGV”, which “soluble on expression in E. coli” value is on record?
A: Its value is “not soluble”.

Q: Which “soluble on expression in E. coli” value does the source give for “MGGSHHHHHHGMASMTGGQQMGRTLYDDDDKDRWGSKIVVVGANHAGTACIKTMLTNYGDANEIVVFDQNSNISFLGSGMALWIGEQIAGPEGLFYSDKEELESLGAKVYMESPVQSIDYDAKTVTALVDGKNHVETYDKLIFATGSQPILPPIKGAEIKEGSLEFEATLENLQFVKLYQNSADVIAKLENKDIKRVAVVGAGYIGVELAEAFQRKGKEVVLIDVVDTCLAGYYDRDLTDLMAKNMEEHGIQLAFGETVKEVAGNGKVEKIITDKNEYDVDMVILAVGFRPNTTLGNGKIDLFRNGAFLVNKRQETSIPGVYAIGDCATIYDNATRDTNYIALASNAVRTGIVAAHNACGTDLEGIGVQGSNGISIYGLHMVSTGLTLEKAKRLGFDAAVTEYTDNQKPEFIEHGNFPVTIKIVYDKDSRRILGAQMAAREDVSMGIHMFSLAIQEGVTIEKLALTDIFFLPHFNKPYNYITMAALGAKD” here?
A: Its value is “soluble”.

Q: For “MGGVTSKVNVDVVQEQVKKDPVVMYTKTSCTFCNRAKDLFSDVRVAYKEVNLDTLKASQPDDYLGIVNGLVYTTRQTSVPQIFVCGRFIGGYTELDALRNSGHLFEAIAQCTGENSPKE”, which “soluble on expression in E. coli” value is on record?
A: Its value is “not soluble”.

Q: With “MGHAHSSSSNGSSQITANPHDEKTKEKVEKLFRQNNRTNRSRSLDNRTQEKLPNRPVGSSHSARFPKTRHIPVPLQGPRKSEEGPNGSISGLSRDDKRIIETCWFKCSQKQLRKCSCDMFWDILHTDEDILRLFRLDHVAPNRLKDNDYFKSHASNLALVLNLVVTNLQDNFDQAQDALQALGYQHLHLIDRTHFQTMYWDIFTDCFERNPPPSFKKGAEREVALKFHRF” as the sequence, how does the “soluble on expression in E. coli” value read?
A: Its value is “not soluble”.

Q: Which “soluble on expression in E. coli” value does the source give for “MGHHHHHHENLYFQSHLYFQSHMTDCEFGYIYRLAQDYLQCVLQIPQPGSGPSKTSRVLQNVAFSVQKEVEKNLKSCLDNVNVVSVDTARTLFNQVMEKEFEDGIINWGRIVTIFAFEGILIKKLLRQQIAPDVDTYKEISYFVAEFIMNNTGEWIRQNGGWENGFVKKFEPK” here?
A: Its value is “soluble”.

Q: With “MGHHHHHHGGHMSLDEFDLIHSITPRTIHHSSVDVGIGDDAALYTAKHGVQEIVCVDTMVEDVHFKLHYSSPEDIGYKALAVNISDIAAMGGIPKFYLVSLAVPSKWTESEIKAMYEGMNELAKLYHMDLIGGDTVSTADKLVVTVTVIGEIEKGQACLRSLAKPNDIVFVTGEIGSSAAGLSLLLEETNPQNSSVETDYFIHRHKRPEPRVSVGRLCSIFKRAALNDVSDGLASELNEIAEASCVSIEIVESMLPIHSDLPKLHPNWKEWALFGGEDFELTGTVSNEEWEVLKQECAALHLPITKIGYVREKTKSKVILKTDQTSMILEKKGYNHFEGGS” as the sequence, how does the “soluble on expression in E. coli” value read?
A: Its value is “soluble”.

Q: With “MGHHHHHHGGHMSLPKQIDHEKRRKQIAEATWRVILERGMEGASARNIAKEAGLSLGALRHYFSTQDELLAFAMKLVQEKVTDRIKDIAVRDLLPKEKVLQILLEMVPTNEETIREMEVWFAFTAYARHKKDMFDASHDGIFSGMRNLIAYLDESDLLKQNADKDIEAERLYALVDGLALHAMLDPVRVNKDRIKRVIMQHVESICVEDTRETQKRHPEGGS” as the sequence, how does the “soluble on expression in E. coli” value read?
A: Its value is “soluble”.

Q: For “MGHHHHHHGGHMSLSDDNSHSSDTISNKKGFFSLLLSQLFHGEPKNRDELLALIRDSGQNDLIDEDTRDMLEGVMDIADQRVRDIMIPRSQMITLKRNQTLDECLDVIIESAHSRFPVISEDKDHIEGILMAKDLLPFMRSDAEAFSMDKVLRQAVVVPESKRVDRMLKEFRSQRYHMAIVIDEFGGVSGLVTIEDILELIVGEIEDEYDEEDDIDFRQLSRHTWTVRALASIEDFNEAFGTHFSDEEVDTIGGLVMQAFGHLPARGETIDIDGYQFKVAMADSRRIIQVHVKIPDDSPQPKLDEEGGS”, which “soluble on expression in E. coli” value is on record?
A: Its value is “soluble”.

Q: Which “soluble on expression in E. coli” value does the source give for “MGHHHHHHHHHHSSGHIDDDDKHMTSLLSQFVSKTDFESYEDFQENFKILVPENFNFAYDVVDVYARDSPEKLAMIWCDDYGNEKIFTFKDLKYYSDKAANFFVKHGIGKGDYVMLTLKSRYDFWYCMLGLHKLGAIAVPATHMLKTRDIVYRIEKAGLKMIVCIAEDDVPEQVDEAHAECGDIPLKKAKVGGDVLEGWIDFRKELEESSPIFERPTGEVSTKNEDICLVYFSSGTAGFPKMVEHDNTYPLGHILTAKYWQNVEDDGLHYTVADSGWGKCVWGKLYGQWIAGCAVFVYDYDRFEAKNMLEKASKYGVTTFCAPPTIYRFLIKEDLSHYNFSTLKYAVVAGEPLNPEVFNRFLEFTGIKLMEGFGQTETVVTIATFPWMEPKPGSIGKPTPGYKIELMDRDGRLCEVGEEGEIVINTMEGKPVGLFVHYGKDPERTEETWHDGYYHTGDMAWMDEDGYLWFVGRADDIIKTSGYKVGPFEVESALIQHPAVLECAITGVPDPVRGQVIKATIVLTKDYTPSDSLKNELQDHVKNVTAPYKYPRIIEFVPELPKTISGKIRRVEIRDKDQSQ” here?
A: The value was “soluble”.

Q: Which “soluble on expression in E. coli” value does the source give for “MGHHHHHHHHHHSSGHIEGRHMKLEFMNLLSENKKENYYYCGENKVALVTGAGRGIGREIAKMLAKSVSHVICISRTQKSCDSVVDEIKSFGYESSGYAGDVSKKEEISEVINKILTEHKNVDILVNNAGITRDNLFLRMKNDEWEDVLRTNLNSLFYITQPISKRMINNRYGRIINISSIVGLTGNVGQANYSSSKAGVIGFTKSLAKELASRNITVNAIAPGFISSDMTDKISEQIKKNIISNIPAGRMGTPEEVANLACFLSSDKSGYINGRVFVIDGGLSP” here?
A: Its value is “soluble”.

Q: For “MGHHHHHHMLENIRDAVRKFLTGSTPYEKAVDEFIKDLQKSLISSDVNVKLVFSLTAKIKERLNKEKPPSVLERKEWFISIVYDELSKLFGGDKEPNVNPTKLPFIIMLVGVQGSGKTTTAGKLAYFYKKRGYKVGLVAADVYRPAAYDQLLQLGNQIGVQVYGEPNNQNPIEIAKKGVDIFVKNKMDIIIVDTAGRHGYGEETKLLEEMKEMYDVLKPDDVILVIDASIGQKAYDLASRFHQASPIGSVIITKMDGTAKGGGALSAVVATGATIKFIGTGEKIDELETFNAKRFVSRILGMGDIESILEKVKGLEEYDKIQKKMEDVMEGKGKLTLRDVYAQIIALRKMGPLSKVLQHIPGLGIMLPTPSEDQLKIGEEKIRRWLAALNSMTYKELENPNIIDKSRMRRIAEGSGLEVEEVRELLEWYNNMNRLLKMVK”, which “soluble on expression in E. coli” value is on record?
A: Its value is “soluble”.

Q: With “MGHHHHHHMSEFYKLAPVDKKGQPFPFDQLKGKVVLIVNVASKCGFTPQYKELEALYKRYKDEGFTIIGFPCNQFGHQEPGSDEEIAQFCQLNYGVTFPIMKKIDVNGGNEDPVYKFLKSQKSGMLGLRGIKWNFEKFLVDKKGKVYERYSSLTKPSSLSETIEELLKEVE” as the sequence, how does the “soluble on expression in E. coli” value read?
A: The value was “soluble”.

Q: For “MGHHHHHHSHAESIKNQMTVKEWEKVFEMSQDKNLYHNLCTSLFPTIHGNDEVKRGVLLMLFGGVPKTTGEGTSLRGDINVCIVGDPSTAKSQFLKHVEEFSPRAVYTSGKASSAAGLTAAVVRDEESHEFVIEAGALMLADNGVCCIDEFDKMDVRDQVAIHEAMEQQTISITKAGVKATLNARTSILAAANPISGHYDRSKSLKQNINLSAPIMSRFDLFFILVDECNEVTDYAIARRIVDLHSRIEESIDRVYSLDDIRRYLLFARQFKPKISKESEDFIVEQYKHLRQRDGSGVTKSSWRITVRQLESMIRLSEAMARMHCCDEVQPKHVKEAFRLLNKSIIRVETPDVNLDQEEE”, which “soluble on expression in E. coli” value is on record?
A: Its value is “not soluble”.

Q: Which “soluble on expression in E. coli” value does the source give for “MGHHHHHHSHCDKCEGRGGKKGAVECCPNCRGTGMQIRIHQIGPGMVQQIQSVCMECQGHGERISPKDRCKSCNGR” here?
A: Its value is “soluble”.
